This assay concerns the target Alpha2a adrenergic receptor-cam "chameleon" (mouse). The assay is described as follows: cell-based or functional assay.

The record followed here is patent US20060272037A1.

purified Go protein: the Kd of the agonist [^3H]UK14304 on membranes containing α2AAR-cam after addition of purified Go came to 3.4 nM, the Kd of the agonist [^3H]UK14304 on the same membranes with Go after addition of GTPγS was determined as 9.6 nM, the reduction by GTPγS of the FRET signal caused by 5 nM UK14304 in the presence of Go is over 50% and the reduction by GTPγS of the binding of 5 nM [^3H]UK14304 in the presence of Go is over 50%.
